Results published in article doi:10.1101/464131.

Molecular target: BS69 CC-MYND domain (amino acids 480-602) (human) (UniProt Q15326)
Assay: ITC

Chain of BS69 CC-MYND domain (amino acids 480-602) (human) (Q15326 480-602): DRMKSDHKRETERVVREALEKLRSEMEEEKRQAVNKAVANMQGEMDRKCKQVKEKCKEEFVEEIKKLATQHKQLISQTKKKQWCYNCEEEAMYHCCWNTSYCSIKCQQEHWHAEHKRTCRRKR
Chain of type 1 EBNA2 polypeptide T1 EBNA2_(381-445) (domain or fragment) (P12978 381-445): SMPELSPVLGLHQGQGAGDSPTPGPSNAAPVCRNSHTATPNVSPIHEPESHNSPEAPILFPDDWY

Substance | Kd [µM] | stoichiometry N (molar ratio EBNA2 : BS69CC-MYND monomer)
type 1 EBNA2 motif 2 peptide (435-445) | 47.7 | 
type 1 EBNA2 polypeptide T1 EBNA2_(381-445) (domain or fragment) | 0.95 | 0.42
